Measurements reported in KR20240010698A.

Legend:
[1] = target: FITC-labelled recombinant human HER2 (human) (UniProt P04626); test: nanoparticle flow cytometry of CDV incubated with FITC-HER2
[2] = target: FITC-labelled recombinant human HER2 (human) (UniProt P04626); test: flow cytometry, CDV on aldehyde/sulfate latex beads, FITC-HER2 titrated

## scTTZ-gLAMP1 (trastuzumab scFv fused to glycosylated LAMP1) on cell-derived vesicles
[1]
  percent of CDV with FITC fluorescence: 44.5%
[2]
  EC50: 0.94 µg/mL
